Measurements from patent US20070077617.
“Also recorded” adds a separate entry of the source.

Assays:
[1] = target: human calcitonin precursor fusion protein PCT
[2] = target: human adrenocorticotropic hormone(1-24) fusion protein PAC

Sequence of fusion protein PA323′ (chain, as listed by the source): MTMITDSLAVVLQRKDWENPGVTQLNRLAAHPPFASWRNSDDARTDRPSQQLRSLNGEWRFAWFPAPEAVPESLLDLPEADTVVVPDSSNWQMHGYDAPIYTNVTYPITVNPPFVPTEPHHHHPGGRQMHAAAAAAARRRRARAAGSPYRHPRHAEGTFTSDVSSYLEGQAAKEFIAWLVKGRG
Sequence of fusion protein PA4D23′ (chain, as listed by the source): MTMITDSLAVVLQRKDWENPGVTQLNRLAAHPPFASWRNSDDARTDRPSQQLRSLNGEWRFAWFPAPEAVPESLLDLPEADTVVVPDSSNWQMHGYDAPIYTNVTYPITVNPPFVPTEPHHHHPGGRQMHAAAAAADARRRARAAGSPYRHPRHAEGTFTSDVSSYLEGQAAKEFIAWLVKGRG
Sequence of fusion protein PA5D23′ (chain, as listed by the source): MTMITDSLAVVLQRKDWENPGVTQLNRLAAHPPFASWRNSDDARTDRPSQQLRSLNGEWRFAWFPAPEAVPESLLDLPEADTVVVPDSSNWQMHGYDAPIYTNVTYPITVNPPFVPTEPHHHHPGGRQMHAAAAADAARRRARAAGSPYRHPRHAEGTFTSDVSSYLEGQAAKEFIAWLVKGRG
Sequence of fusion protein PMT (chain, as listed by the source): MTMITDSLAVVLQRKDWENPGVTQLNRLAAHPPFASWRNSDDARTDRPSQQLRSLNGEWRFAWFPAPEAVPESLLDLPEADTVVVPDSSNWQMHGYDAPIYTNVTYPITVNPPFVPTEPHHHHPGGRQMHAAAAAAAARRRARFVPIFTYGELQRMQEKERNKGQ
Sequence of fusion protein PA1′A3′ (chain, as listed by the source): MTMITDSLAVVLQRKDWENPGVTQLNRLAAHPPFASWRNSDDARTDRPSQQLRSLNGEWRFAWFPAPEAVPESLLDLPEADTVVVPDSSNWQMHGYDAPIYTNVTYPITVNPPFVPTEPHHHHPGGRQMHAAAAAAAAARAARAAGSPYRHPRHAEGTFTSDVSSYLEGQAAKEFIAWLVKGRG
Sequence of fusion protein PA3D23′ (chain, as listed by the source): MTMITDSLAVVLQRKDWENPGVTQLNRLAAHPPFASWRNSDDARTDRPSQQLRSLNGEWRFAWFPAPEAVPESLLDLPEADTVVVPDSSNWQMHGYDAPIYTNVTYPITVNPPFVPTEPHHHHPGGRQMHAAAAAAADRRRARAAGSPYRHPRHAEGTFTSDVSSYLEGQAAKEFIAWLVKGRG
Sequence of fusion protein PA3′ (chain, as listed by the source): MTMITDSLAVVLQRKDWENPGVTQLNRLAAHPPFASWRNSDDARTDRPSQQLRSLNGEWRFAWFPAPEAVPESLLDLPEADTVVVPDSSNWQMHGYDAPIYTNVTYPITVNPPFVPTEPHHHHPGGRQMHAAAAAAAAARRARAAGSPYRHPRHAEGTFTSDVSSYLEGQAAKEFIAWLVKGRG
Sequence of fusion protein PA7 (chain, as listed by the source): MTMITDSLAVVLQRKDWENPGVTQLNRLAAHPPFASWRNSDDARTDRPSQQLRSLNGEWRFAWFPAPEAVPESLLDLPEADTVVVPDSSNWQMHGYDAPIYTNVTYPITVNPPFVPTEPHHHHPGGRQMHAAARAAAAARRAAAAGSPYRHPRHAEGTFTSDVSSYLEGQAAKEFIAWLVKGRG
Sequence of fusion protein PA4′ (chain, as listed by the source): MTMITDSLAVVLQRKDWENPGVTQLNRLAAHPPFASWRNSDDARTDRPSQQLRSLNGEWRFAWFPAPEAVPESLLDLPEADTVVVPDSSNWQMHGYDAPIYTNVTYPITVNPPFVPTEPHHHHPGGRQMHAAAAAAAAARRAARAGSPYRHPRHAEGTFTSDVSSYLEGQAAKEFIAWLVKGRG
Sequence of fusion protein PA2′ (chain, as listed by the source): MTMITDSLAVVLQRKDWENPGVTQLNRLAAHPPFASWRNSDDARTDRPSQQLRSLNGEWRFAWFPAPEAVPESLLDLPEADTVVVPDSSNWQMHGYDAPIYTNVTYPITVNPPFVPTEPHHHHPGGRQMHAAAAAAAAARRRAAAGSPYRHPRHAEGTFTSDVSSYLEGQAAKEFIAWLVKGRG
Sequence of fusion protein PA5 (chain, as listed by the source): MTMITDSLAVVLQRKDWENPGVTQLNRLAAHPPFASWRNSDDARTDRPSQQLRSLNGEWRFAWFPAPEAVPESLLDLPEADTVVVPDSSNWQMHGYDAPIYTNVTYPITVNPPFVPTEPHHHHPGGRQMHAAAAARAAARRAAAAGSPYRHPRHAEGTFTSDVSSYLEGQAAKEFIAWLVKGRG
Sequence of fusion protein PA23′ (chain, as listed by the source): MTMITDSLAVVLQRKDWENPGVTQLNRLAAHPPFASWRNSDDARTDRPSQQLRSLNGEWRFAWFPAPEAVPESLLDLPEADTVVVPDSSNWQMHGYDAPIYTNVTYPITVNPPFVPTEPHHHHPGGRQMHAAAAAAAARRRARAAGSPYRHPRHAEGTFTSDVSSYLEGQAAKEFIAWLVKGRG
Sequence of fusion protein PA10 (chain, as listed by the source): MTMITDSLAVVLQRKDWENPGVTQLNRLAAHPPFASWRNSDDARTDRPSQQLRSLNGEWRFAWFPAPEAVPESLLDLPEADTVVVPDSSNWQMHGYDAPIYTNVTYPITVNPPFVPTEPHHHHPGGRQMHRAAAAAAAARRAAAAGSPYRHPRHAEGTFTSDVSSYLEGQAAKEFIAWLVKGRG
Sequence of fusion protein PA6 (chain, as listed by the source): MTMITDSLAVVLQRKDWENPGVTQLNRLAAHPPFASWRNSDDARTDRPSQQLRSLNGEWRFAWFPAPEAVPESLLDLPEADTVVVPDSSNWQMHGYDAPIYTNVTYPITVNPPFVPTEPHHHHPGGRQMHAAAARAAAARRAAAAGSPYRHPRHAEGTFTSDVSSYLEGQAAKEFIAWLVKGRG
Sequence of fusion protein PA9 (chain, as listed by the source): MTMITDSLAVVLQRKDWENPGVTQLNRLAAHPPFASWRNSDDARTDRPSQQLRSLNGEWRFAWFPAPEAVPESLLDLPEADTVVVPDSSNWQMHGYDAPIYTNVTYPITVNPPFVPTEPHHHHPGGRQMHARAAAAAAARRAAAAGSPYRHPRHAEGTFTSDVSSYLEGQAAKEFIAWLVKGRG
Sequence of fusion protein PA5′ (chain, as listed by the source): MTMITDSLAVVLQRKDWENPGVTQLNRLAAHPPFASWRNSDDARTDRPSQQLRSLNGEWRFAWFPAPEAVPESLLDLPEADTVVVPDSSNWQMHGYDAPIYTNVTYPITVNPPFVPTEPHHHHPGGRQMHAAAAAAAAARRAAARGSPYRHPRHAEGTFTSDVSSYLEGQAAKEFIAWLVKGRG
Sequence of fusion protein PA3 (chain, as listed by the source): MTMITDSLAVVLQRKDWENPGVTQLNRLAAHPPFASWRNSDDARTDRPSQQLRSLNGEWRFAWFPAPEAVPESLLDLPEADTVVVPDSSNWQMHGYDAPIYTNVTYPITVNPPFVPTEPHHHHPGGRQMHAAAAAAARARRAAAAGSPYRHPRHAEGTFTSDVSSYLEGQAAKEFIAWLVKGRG
Sequence of fusion protein PA8 (chain, as listed by the source): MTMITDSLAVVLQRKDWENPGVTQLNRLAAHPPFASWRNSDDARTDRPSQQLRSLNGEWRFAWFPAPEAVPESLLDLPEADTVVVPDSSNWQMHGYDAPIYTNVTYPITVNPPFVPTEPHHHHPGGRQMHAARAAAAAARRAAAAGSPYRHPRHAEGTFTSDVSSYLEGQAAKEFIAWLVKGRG
Sequence of fusion protein PA2 (chain, as listed by the source): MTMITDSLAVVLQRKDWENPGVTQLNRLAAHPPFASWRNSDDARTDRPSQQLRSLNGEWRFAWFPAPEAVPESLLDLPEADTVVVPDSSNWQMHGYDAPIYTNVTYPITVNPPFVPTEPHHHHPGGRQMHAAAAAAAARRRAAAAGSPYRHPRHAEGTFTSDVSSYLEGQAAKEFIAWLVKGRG
Sequence of fusion protein PA1A3′ (chain, as listed by the source): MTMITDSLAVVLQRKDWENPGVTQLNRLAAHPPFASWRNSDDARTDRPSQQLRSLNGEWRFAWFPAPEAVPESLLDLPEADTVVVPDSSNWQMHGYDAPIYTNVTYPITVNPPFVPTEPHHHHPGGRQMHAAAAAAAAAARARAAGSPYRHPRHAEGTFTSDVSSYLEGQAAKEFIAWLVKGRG
Sequence of fusion protein PA4 (chain, as listed by the source): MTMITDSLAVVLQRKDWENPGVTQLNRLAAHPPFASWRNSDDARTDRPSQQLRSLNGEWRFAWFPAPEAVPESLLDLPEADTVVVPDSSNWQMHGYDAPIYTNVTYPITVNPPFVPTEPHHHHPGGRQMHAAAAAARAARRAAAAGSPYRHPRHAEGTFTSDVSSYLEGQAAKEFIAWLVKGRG
Sequence of fusion protein PA2′3′ (chain, as listed by the source): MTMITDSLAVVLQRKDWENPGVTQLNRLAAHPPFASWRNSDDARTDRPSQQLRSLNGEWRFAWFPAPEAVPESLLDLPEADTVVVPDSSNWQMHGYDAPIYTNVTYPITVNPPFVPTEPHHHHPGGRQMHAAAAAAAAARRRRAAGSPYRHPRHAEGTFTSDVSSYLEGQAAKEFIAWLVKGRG
Sequence of fusion protein PRK (chain, as listed by the source): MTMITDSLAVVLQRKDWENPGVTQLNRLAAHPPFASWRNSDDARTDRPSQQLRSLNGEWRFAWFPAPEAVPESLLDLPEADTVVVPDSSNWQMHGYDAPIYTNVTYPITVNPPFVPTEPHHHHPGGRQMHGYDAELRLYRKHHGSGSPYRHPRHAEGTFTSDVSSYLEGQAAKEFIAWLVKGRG
Sequence of fusion protein PRE (chain, as listed by the source): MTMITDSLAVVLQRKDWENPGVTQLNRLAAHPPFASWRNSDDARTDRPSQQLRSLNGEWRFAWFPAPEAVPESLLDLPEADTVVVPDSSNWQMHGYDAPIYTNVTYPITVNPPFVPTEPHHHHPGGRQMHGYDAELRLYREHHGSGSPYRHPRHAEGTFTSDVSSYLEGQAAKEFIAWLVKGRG
Sequence of fusion protein PRF (chain, as listed by the source): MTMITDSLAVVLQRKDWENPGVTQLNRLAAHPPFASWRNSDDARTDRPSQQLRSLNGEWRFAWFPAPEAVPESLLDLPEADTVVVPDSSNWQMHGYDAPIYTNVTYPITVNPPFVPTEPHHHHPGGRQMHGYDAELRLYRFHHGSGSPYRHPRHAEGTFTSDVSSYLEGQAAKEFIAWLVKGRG

B1: OmpT protease (wild-type, E. coli mature OmpT protease) (protein)
chain: STETLSFTPDNINADISLGTLSGKTKERVYLAEEGGRKVSQLDWKFNNAAIIKGAINWDLMPQISIGAAGWTTLGSRGGNMVDQDWMDSSNPGTWTDESRHPDTQLNYANEFDLNIKGWLLNEPNYRLGLMAGYQESRYSFTARGGSYIYSSEEGFRDDIGSFPNGERAIGYKQRFKMPYIGLTGSYRYEDFELGGTFKYSGWVESSDNDEHYDPGKRITYRSKVKDQNYYSVAVNAGYYVTPNAKVYVEGAWNRVTNKKGNTSLYDHNNNTSDYSKNGAGIENYNFITTAGLKYTF
Which results are given for B1?
relative cleavage efficiency (fusion protein PRG): less than 3%; relative cleavage efficiency (fusion protein PRM): < 3%; relative cleavage efficiency (fusion protein PRN): < 3%; relative cleavage efficiency (fusion protein PRT): < 3%; relative cleavage efficiency (fusion protein PRL): less than 3%; cleavage (HPLC, mass analysis) (fusion protein PA4D23′): the major cleavage site of PA5D23′, PA4D23′ and PA3D23′ is Arg^143-Ala^144; cleavage at Arg^139-Arg^140 and Arg^140-Arg^141 (fusion protein PA4D23′): no cleavage was detected at Arg^139-Arg^140 and Arg^140-Arg^141 as was detected with PA23′; cleavage efficiency at Arg^143-Ala^144 against Arg^140-Arg^141 of PA (fusion protein PA4D23′): low compared to PA23′, but twice the cleavage efficiency at Arg^140-Arg^141 of PA; cleavage (HPLC, mass analysis) (fusion protein PA23′): It was confirmed that PA23′, PA323′ and PA2′3′ are cleaved at Arg^143-Ala^144; cleavage efficiency at Arg^143-Ala^144 against Arg^140-Arg^141 of PA (fusion protein PA23′): 2.9 times the cleavage efficiency at Arg^140-Arg^141 of PA; relative cleavage efficiency (fusion protein PRQ): less than 3%; relative cleavage efficiency (fusion protein PRY): < 3%; relative cleavage efficiency (fusion protein PRA): 5.4%; cleavage (HPLC, mass analysis) (fusion protein PA8): All of the PAn proteins underwent cleavage by OmpT protease at the same site as PA; cleavage efficiency against PA (fusion protein PA8): Increase in cleavage efficiency was seen for all of the PAn proteins except for PA2 and PA2′; relative cleavage efficiency (fusion protein PRS): 3.9%; relative cleavage efficiency (fusion protein PRV): 3.5%; cleavage (HPLC, mass analysis) (fusion protein PA3): All of the PAn proteins underwent cleavage by OmpT protease at the same site as PA; cleavage efficiency against PA (fusion protein PA3): Increase in cleavage efficiency was seen for all of the PAn proteins except for PA2 and PA2′; cleavage (HPLC, mass analysis) (fusion protein PA5′): All of the PAn proteins underwent cleavage by OmpT protease at the same site as PA; cleavage efficiency against PA (fusion protein PA5′): Increase in cleavage efficiency was seen for all of the PAn proteins except for PA2 and PA2′; cleavage (HPLC, mass analysis) (fusion protein PA3′): All of the PAn proteins underwent cleavage by OmpT protease at the same site as PA, while PA2, PA2′ and PA3′ also underwent cleavage at other sites; cleavage efficiency against PA (fusion protein PA3′): Increase in cleavage efficiency was seen for all of the PAn proteins except for PA2 and PA2′; cleavage efficiency at Arg^140-Arg^141 (PA = 100%) (fusion protein PA3′): cleavage efficiencies: 220%, 73%; cleavage efficiency at Arg^143-Ala^144 (PA = 100%) (fusion protein PA3′): cleavage efficiencies: 220%, 73%; cleavage (SDS-PAGE, HPLC) (fusion protein PMT): cleavage of the fusion protein PMT by OmpT protease was confirmed; release of human motilin (cleavage at Arg^143-Phe^144) (fusion protein PMT): only a very slight amount of peptide cleavage fragment of Arg^143-Phe^144, i.e. human motilin, was detected by mass analysis; relative cleavage efficiency: RAR-motilin (Arg^140-Arg^141) (fusion protein PMT; scale: relative): 23; relative cleavage efficiency: RRAR-motilin (Arg^139-Arg^140) (fusion protein PMT; scale: relative): 100; cleavage (HPLC, mass analysis) (fusion protein PA9): All of the PAn proteins underwent cleavage by OmpT protease at the same site as PA; cleavage efficiency against PA (fusion protein PA9): Increase in cleavage efficiency was seen for all of the PAn proteins except for PA2 and PA2′; cleavage (HPLC, mass analysis) [1]: The fusion protein PCT was cleaved at Arg^139-Arg^140 and Arg^140-Arg^141 by wild-type OmpT protease, releasing RRAR-CT and RAR-CT; cleavage (HPLC, mass analysis) (fusion protein PA7): All of the PAn proteins underwent cleavage by OmpT protease at the same site as PA; cleavage efficiency against PA (fusion protein PA7): Increase in cleavage efficiency was seen for all of the PAn proteins except for PA2 and PA2′; relative cleavage efficiency (fusion protein PRW): less than 3%; relative cleavage efficiency (fusion protein PRI): < 3%; cleavage (HPLC, mass analysis) (fusion protein PA2′3′): It was confirmed that PA23′, PA323′ and PA2′3′ are cleaved at Arg^143-Ala^144; cleavage efficiency at Arg^143-Ala^144 against Arg^140-Arg^141 of PA (fusion protein PA2′3′): low at 63% of the cleavage efficiency at Arg^140-Arg^141 of PA; cleavage (HPLC, mass analysis) (fusion protein PA6): All of the PAn proteins underwent cleavage by OmpT protease at the same site as PA; cleavage efficiency against PA (fusion protein PA6): Increase in cleavage efficiency was seen for all of the PAn proteins except for PA2 and PA2′; cleavage (HPLC, mass analysis) [2]: The fusion protein PAC was cleaved at Arg^143-Ser^144 by wild-type OmpT protease to release human adrenocorticotropic hormone(1-24); cleavage (HPLC, mass analysis) (fusion protein PA3D23′): the major cleavage site of PA5D23′, PA4D23′ and PA3D23′ is Arg^143-Ala^144; cleavage at Arg^139-Arg^140 and Arg^140-Arg^141 (fusion protein PA3D23′): no cleavage was detected at Arg^139-Arg^140 and Arg^140-Arg^141, similar to PA4D23′; cleavage efficiency at Arg^143-Ala^144 against Arg^140-Arg^141 of PA (fusion protein PA3D23′): about the same as the cleavage efficiency at Arg^140-Arg^141 of PA, and lower than PA4D23′; relative cleavage efficiency (fusion protein PRF): < 3%; relative cleavage efficiency (fusion protein PRE): less than 3%; cleavage (HPLC, mass analysis) (fusion protein PA1′A3′): PA1A3′ and PA1′A3′ were both cleaved at Arg^143-Ala^144; also recorded: Cleavage was also confirmed at Arg^140-Ala^141 in PA1′A3′; cleavage efficiency against PA (fusion protein PA1′A3′): all of the cleavage efficiencies were lower than the cleavage efficiency at Arg^140-Arg^141 of PA; cleavage (HPLC, mass analysis) (fusion protein PA10): All of the PAn proteins underwent cleavage by OmpT protease at the same site as PA; cleavage efficiency against PA (fusion protein PA10): Increase in cleavage efficiency was seen for all of the PAn proteins except for PA2 and PA2′; cleavage (HPLC, mass analysis) (fusion protein PA4′): All of the PAn proteins underwent cleavage by OmpT protease at the same site as PA; cleavage efficiency against PA (fusion protein PA4′): Increase in cleavage efficiency was seen for all of the PAn proteins except for PA2 and PA2′; cleavage (SDS-PAGE) (fusion protein PRMT): no cleavage of PRMT was detected; relative cleavage efficiency (fusion protein PRH): less than 3%; cleavage (HPLC, mass analysis) (fusion protein PA5D23′): the major cleavage site of PA5D23′, PA4D23′ and PA3D23′ is Arg^143-Ala^144; cleavage at Arg^140-Arg^141 (fusion protein PA5D23′): cleavage was also observed at Arg^140-Arg^141; cleavage efficiency at Arg^143-Ala^144 against Arg^140-Arg^141 of PA (fusion protein PA5D23′): 1.9 times the cleavage efficiency at Arg^140-Arg^141 of PA; cleavage (HPLC, mass analysis) (fusion protein PA5): All of the PAn proteins underwent cleavage by OmpT protease at the same site as PA; cleavage efficiency against PA (fusion protein PA5): Increase in cleavage efficiency was seen for all of the PAn proteins except for PA2 and PA2′; cleavage efficiency (reference) (fusion protein PA): the cleavage efficiency of the fusion protein PA is 100%; cleavage (HPLC, mass analysis) (fusion protein PA2): All of the PAn proteins underwent cleavage by OmpT protease at the same site as PA, while PA2, PA2′ and PA3′ also underwent cleavage at other sites; cleavage efficiency against PA (fusion protein PA2): the cleavage efficiencies of PA2 and PA2′ were reduced to about ⅓; cleavage (HPLC, mass analysis) (fusion protein PA2′): All of the PAn proteins underwent cleavage by OmpT protease at the same site as PA, while PA2, PA2′ and PA3′ also underwent cleavage at other sites; cleavage efficiency against PA (fusion protein PA2′): the cleavage efficiencies of PA2 and PA2′ were reduced to about ⅓; relative cleavage efficiency (fusion protein PRC): 3.1%; cleavage (HPLC, mass analysis) (fusion protein PA1A3′): PA1A3′ and PA1′A3′ were both cleaved at Arg^143-Ala^144; cleavage efficiency against PA (fusion protein PA1A3′): all of the cleavage efficiencies were lower than the cleavage efficiency at Arg^140-Arg^141 of PA; relative cleavage efficiency (fusion protein PRR): 100%; relative cleavage efficiency (fusion protein PRK): 88%; relative cleavage efficiency (fusion protein PRP): less than 3%; cleavage (HPLC, mass analysis) (fusion protein PA4): All of the PAn proteins underwent cleavage by OmpT protease at the same site as PA; cleavage efficiency against PA (fusion protein PA4): PA4 had the highest cleavage efficiency of about 5 times that of PA; cleavage (HPLC, mass analysis) (fusion protein PA323′): It was confirmed that PA23′, PA323′ and PA2′3′ are cleaved at Arg^143-Ala^144; cleavage at Arg^140-Arg^141 against Arg^143-Ala^144 (fusion protein PA323′): at 59% the cleavage efficiency at Arg^143-Ala^144; cleavage efficiency at Arg^143-Ala^144 against Arg^140-Arg^141 of PA (fusion protein PA323′): also 2.9 times the cleavage efficiency at Arg^140-Arg^141 of PA; relative cleavage efficiency (fusion protein PRD): less than 3%
